# Laboratory results as given in patent US6458354B1, “Molecular complexes which modify immune responses” (The Johns Hopkins University, priority 1996, dated 2002).
# “And” between values parts separate entries of the source, which are not always exact repeats. Equal values may be shown once. Where no end group is shown, it is not given here.
# Columns and labels:
# [1] = target: dEV-8-loaded H-2 K^bm3 (mouse); experiment: cell-based or functional assay
# [2] = target: SIY-loaded H-2 K^bm3 (mouse); experiment: cell-based or functional assay
# [3] = target: p2Ca-loaded H-2 L^d (mouse) (UniProt P01897); experiment: cell-based or functional assay
# [4] = target: SIY-loaded H-2 K^b (mouse) (UniProt P01901); experiment: cell-based or functional assay
# [5] = tested on: 2C CTL, T2 K^bm11 target cells; experiment: 2C CTL mediated lysis of peptide-loaded T2 K^bm11 targets; assay type: cell-based, mice; conditions: data not shown
# Protocol: (§1) CTL Assays. Splenocytes from 2C TCR transgenic mice (Sha et al. Nature 336:73-76, 1988) were resuspended at 1.25×10^6 per ml and stimulated with 1.75×10^6 BALB/c splenocytes that had been exposed to 3,000 cGy radiation. On day 7, the 2C T cell-enriched cultures were restimulated at 5×10^5 per ml with 2.5×10^6 per ml BALB/c splenocytes. Experiments were performed on this and subsequent stimulationUs on day 4. All subsequent stimulation was performed with 3.75×10^5 per ml 2C splenocytes and 2.5×10^6 per ml BALB/c cells in the presence of IL-2 (5 units/ml).
# (§2) Assays were performed in triplicate according to established CTL protocols. Briefly, target cells (2-4×10^6) were incubated with […] ^51[Cr] at 37° C. for 1 h. After three washes, cells were added to V-bottom 96 well plates (3×10^3/100 μl) and incubated (25° C. for 1.5 hour) with peptides at the indicated concentrations. 2C T cells (3×10^4/100 μl) were added to targets and plates were incubated at 37° C. for 4.5 hour. Maximum release was achieved by incubating targets with 5% Triton X 100. Percent specific lysis was calculated from raw data using [(experimental release—spontaneous release )/(maximum release—spontaneous release)]×100.
# [6] = tested on: 2C CTL, T2 K^b target cells; assay type: cell-based
# Protocol: (§3) FIGS. 12(A-C). 2C CTL mediated lysis on various peptide/MHC targets. […] Peptide-loaded target cells were then incubated at an effector to target ratio of 10:1 and specific lysis calculated as described below. Data shown are representative of three separate experiments.
# as §1, §2
# [7] = tested on: 2C CTL, T2 K^bm3 target cells; assay type: cell-based
# Protocol: as §3, §1, §2
# [8] = target: 2C TCR; conditions: read-out: Kd (μM) of 2C TCR for peptide/MHC complex; MHC restriction H-2 Ld; monovalent 2C TCR; cited from earlier work
# [9] = tested on: RENCA cells; experiment: Effect of γ-IFN on endogenous peptide/H-2 L^d complexes of RENCA cells, FACS with 2C TCR/Ig or mAb 30.5.7; assay type: cell-based, murine; conditions: for effect of prior incubation of RENCA cells with peptide on 2C TCR/Ig binding: saturating peptide
# Protocol: FIGS. 13(A-H). Fluorescence data showing modulation of endogenous 2C specific peptide/H-2 L^d complexes on the surface of RENCA cells by γ-IFN. RENCA cells were cultured for 48 hours with 0 (FIGS. 13A and 13E), 5 (FIGS. 13B and 13F), 10 (FIGS. 13C and 13G), or 50 (FIGS. 13D and 13H) units/ml γ-IFN. […] This was accomplished by incubating RENCA cells with saturating amounts of the H-2 L^d binding peptide, MCMV, which efficiently displaced the endogenous H-2 L^d bound peptides, including any 2C-reactive peptides. […] Cells were subsequently stained with GAM-IgG-RPE and analyzed by FACS. Resultant histograms are shown. Solid lines represent histograms of cultures with no added peptide while dotted lines represent histograms from cultures incubated with pMCMV. All experiments were done in duplicate and repeated at least three times. Note the differences in the extent of fluorescence (see the scales on the histograms) upon staining with 2C-TCR/Ig vs. staining with 30.5.7.
# Peptide Loading of Cells. RMA-S and T2 cell lines are defective in antigen processing and express functionally “empty” class I MHC on their cell surface. These “empty” MHC molecules can be loaded with peptides using the following protocol (25). Cells (RMA-S, RMA-S L^d, T2, T2 L^d, T2 Kb, T2 Kbm3 or T2 K^bm11) are cultured at 27° C. overnight. The following morning, cells are cultured in the presence of various antigenic peptides (100 μM final concentration) or in the absence of peptides for an additional 1.5 hours at 27° C. and then incubated for one hour at 37° C. RENCA cells were loaded with peptides by incubation with peptides (100 μM final concentration) for >2 hour at 37° C. Cells were then harvested and processed for FACS analysis as described.
# To analyze this possibility and to follow the expression of endogenous 2C-reactive peptide/H-2 L^d complexes within a heterogeneous peptide/MHC environment, the influence of γ-IFN on the H-2 L^d -expressing murine cell line RENCA was studied.
# RENCA cells were cultured in the presence of variable amounts of γ-IFN to induce up-regulation of naturally loaded peptide/MHC complexes. […] The effect of γ-IFN was dose dependent with a maximal 2-3 fold increase seen on cells treated with 10 units/ml of γ-IFN.
# [10] = target: serologically reactive H-2 L^d on RENCA cells (murine) (UniProt P01897); experiment: flow cytometry on unstimulated RENCA cells
# [11] = target: serologically reactive H-2 L^d on RENCA cells (murine) (UniProt P01897); experiment: flow cytometry on RENCA cells stimulated with 5-50 units/ml γ-IFN
# [12] = target: pVSV-loaded H-2 K^b (mouse) (UniProt P01901); experiment: flow cytometry on peptide-loaded T2 K^b cells
# [13] = target: SIY-loaded H-2 K^b (mouse) (UniProt P01901); experiment: flow cytometry on peptide-loaded T2 K^b cells
# [14] = target: pVSV-loaded H-2 K^bm3 (mouse); experiment: flow cytometry on peptide-loaded T2 K^bm3 cells
# [15] = target: SIY-loaded H-2 K^bm3 (mouse); experiment: flow cytometry on peptide-loaded T2 K^bm3 cells
# [16] = target: QL9-loaded H-2 L^d (mouse) (UniProt P01897); experiment: direct flow cytometry on peptide-loaded L^d cells
# [17] = target: SL9-loaded H-2 L^d (mouse) (UniProt P01897); experiment: direct flow cytometry on peptide-loaded RMA-S L^d cells
# [18] = target: QL9-loaded H-2 L^d (mouse) (UniProt P01897); experiment: flow cytometry, serial dilutions on peptide-loaded RMA-S L^d cells, H57-FITC detection
# [19] = target: p2Ca-loaded H-2 L^d (mouse) (UniProt P01897); experiment: as above
# serologically reactive H-2 L^d on RENCA cells (murine), sequence (P01897 25-362): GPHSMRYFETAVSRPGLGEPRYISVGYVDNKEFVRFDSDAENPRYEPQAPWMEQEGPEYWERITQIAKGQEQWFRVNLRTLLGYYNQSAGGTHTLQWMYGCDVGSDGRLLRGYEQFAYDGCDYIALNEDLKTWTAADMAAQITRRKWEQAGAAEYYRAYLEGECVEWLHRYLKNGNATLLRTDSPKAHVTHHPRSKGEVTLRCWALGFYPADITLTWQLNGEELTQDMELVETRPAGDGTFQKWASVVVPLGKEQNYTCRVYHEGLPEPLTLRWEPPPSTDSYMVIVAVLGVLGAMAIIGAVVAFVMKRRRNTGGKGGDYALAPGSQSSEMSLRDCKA
# soluble divalent 2C TCR/Ig, sequence (A2KF29 whole entry, looked up, tested part not stated): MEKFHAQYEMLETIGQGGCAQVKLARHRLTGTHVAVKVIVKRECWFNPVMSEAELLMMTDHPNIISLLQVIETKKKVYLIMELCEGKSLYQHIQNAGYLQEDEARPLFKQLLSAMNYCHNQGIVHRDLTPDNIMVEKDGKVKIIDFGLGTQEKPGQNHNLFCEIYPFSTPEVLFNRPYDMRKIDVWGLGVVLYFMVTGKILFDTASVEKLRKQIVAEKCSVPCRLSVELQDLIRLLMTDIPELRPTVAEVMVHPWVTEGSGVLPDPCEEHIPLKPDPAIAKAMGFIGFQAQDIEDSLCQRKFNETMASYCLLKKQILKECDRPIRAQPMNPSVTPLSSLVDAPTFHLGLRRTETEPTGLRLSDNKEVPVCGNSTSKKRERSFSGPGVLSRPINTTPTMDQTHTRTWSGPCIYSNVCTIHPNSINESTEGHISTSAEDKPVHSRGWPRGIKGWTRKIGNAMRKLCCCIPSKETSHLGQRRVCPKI
# 2C TCR on 2C CTL, sequence (A2KF29 whole entry): as the sequence (A2KF29 whole entry, looked up, tested part not stated) above
# p2Ca-loaded H-2 L^d (mouse), sequence (P01897 25-362): as the sequence (P01897 25-362) above
# QL9-loaded H-2 L^d (mouse), sequence (P01897 25-362): as above
# SIY-loaded H-2 K^b (mouse), sequence (P01901 22-369): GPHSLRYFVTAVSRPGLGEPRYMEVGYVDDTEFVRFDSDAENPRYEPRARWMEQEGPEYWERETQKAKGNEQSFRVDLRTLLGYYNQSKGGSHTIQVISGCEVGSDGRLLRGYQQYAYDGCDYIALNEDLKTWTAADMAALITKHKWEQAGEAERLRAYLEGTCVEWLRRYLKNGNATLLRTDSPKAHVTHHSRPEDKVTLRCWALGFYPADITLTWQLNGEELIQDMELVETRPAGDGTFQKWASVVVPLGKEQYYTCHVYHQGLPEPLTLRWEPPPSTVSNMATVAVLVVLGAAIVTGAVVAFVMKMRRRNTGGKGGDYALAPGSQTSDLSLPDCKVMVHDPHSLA
# pVSV-loaded H-2 K^b (mouse), sequence (P01901 22-369): as above
# SL9-loaded H-2 L^d (mouse), sequence (P01897 25-309): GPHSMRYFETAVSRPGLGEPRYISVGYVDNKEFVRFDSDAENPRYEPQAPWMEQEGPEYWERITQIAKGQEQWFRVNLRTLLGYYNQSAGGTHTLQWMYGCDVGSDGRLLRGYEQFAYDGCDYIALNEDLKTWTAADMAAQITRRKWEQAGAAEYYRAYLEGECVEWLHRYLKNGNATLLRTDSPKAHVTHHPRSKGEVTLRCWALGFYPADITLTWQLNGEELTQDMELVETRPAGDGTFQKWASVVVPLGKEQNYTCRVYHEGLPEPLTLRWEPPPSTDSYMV
substance,measurement,setting,value
2C TCR on 2C CTL (from UniProt A2KF29),LD50 of peptide for 2C CTL mediated lysis,[1],0.5 ng/mL and 1 ng/mL
same,LD50 of peptide for 2C CTL mediated lysis,[2],100 ng/mL
same,LD50 of peptide for 2C CTL mediated lysis of p2Ca-loaded T2 L^d cells,[3],0.5 ng/mL
same,LD50 of peptide for 2C CTL mediated lysis,[4],10 ng/mL
EQYKFYSV [dEV-8],2C CTL mediated lysis of peptide loaded targets,[5],relatively poor targets
same,2C CTL mediated lysis of peptide loaded targets,[6],neither lysed
same,2C CTL mediated lysis of peptide loaded targets,[7],efficiently lysed
LSPFPFDL [p2Ca],Kd,[8],0.1 to 0.5 µM
LSPFPFDLL [SL9],Kd,[8],71 µM
QLSPFPFDL [QL9],Kd,[8],0.066 µM
same,effect of prior incubation of RENCA cells with peptide on 2C TCR/Ig binding,[9],dramatic increase
SIYRYYGL [SIY],2C CTL mediated lysis of peptide loaded targets,[5],efficient lysis
same,2C CTL mediated lysis of peptide loaded targets,[6],efficient lysis
same,2C CTL mediated lysis of peptide loaded targets,[7],significantly less efficient
same,LD50 of peptide for 2C CTL mediated lysis,"[7]; T2 K^bm3 targets, effector to target ratio 10:1",~100 ng/mL
YPHFMPTNL [pMCMV],effect of prior incubation of RENCA cells with peptide on 2C TCR/Ig binding,[9],blocked
mAb 30.5.7 (antibody),mean channel fluorescence (MCF),[10],500
same,mean channel fluorescence (MCF),[11],2670 to 3040
soluble divalent 2C TCR/Ig (from UniProt A2KF29),mean channel fluorescence (MCF),[12],14
same,mean channel fluorescence (MCF),[13],276
same,mean channel fluorescence (MCF),[14],12
same,mean channel fluorescence (MCF),[15],36
same,mean channel fluorescence (MCF),[16],3000
same,mean channel fluorescence (MCF),[17],100
same,"lowest concentration tested, at which binding was detected",[18],1 nM
same,concentration required to detect binding,[19],3 nM
γ-IFN: lymphokine used to up-regulate naturally loaded peptide/MHC complexes on RENCA cells,increase in serologically reactive H-2 L^d recognized by mAb 30.5.7,"[9]; 5-50 units/ml γ-IFN, 48 hours",5-6 fold
same,maximal increase of 2C TCR/Ig binding to RENCA cells,"[9]; 10 units/ml γ-IFN, 48 hours",2-3 fold
